Measurements reported in PMC9687869, “Redox Regulation of Signaling Complex between Caveolin-1 and Neuronal Calcium Sensor Recoverin” (Biomolecules, 2022).

T1: recombinant myristoylated recoverin, reduced monomer (Rec) (UniProt P21457 1-202, N-terminal myristoyl group (myristoylation rate more than 95%))
T1 construct: recoverin, photoreceptor neuronal calcium sensor; also called intact recoverin; wild-type recoverin
T1 sequence (looked up): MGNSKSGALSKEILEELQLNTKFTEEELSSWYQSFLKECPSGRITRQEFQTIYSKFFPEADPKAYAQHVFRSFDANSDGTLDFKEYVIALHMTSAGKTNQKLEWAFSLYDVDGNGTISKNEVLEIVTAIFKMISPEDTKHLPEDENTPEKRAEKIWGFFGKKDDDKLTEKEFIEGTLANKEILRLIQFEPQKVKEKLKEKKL

B1: N-terminal fragment of caveolin-1 M1-R101 with N-terminal His6-tag (Cav) (domain or fragment, UniProt Q03135 1-101, looked up)
chain: MSGGKYVDSEGHLYTVPIREQGNIYKPNNKAMADELSEKQVYDAHTKEIDLVNRDPKHLNDDVVKIDFEDVIAEPEGTHSFDGIWKASFTTFTVTKYWFYR
notes: caveolin-1, N-terminal domain and oligomerization domain, residues M1-R101; Forms homogeneous oligomers in solution by DLS; the number of copies was not measured; It names pET-22b and an N-terminal His6-tag; also called Cav (1-101 aa) fragment; caveolin-1 fragment; source: E. coli BL21 Star (DE3), solubilised in guanidine hydrochloride, dialysed, purified (Ni-NTA)
B2: recoverin C39D mutant (Rec-C39D) (natural protein, UniProt P21457 1-202, looked up)
chain: MGNSKSGALSKEILEELQLNTKFTEEELSSWYQSFLKEDPSGRITRQEFQTIYSKFFPEADPKAYAQHVFRSFDANSDGTLDFKEYVIALHMTSAGKTNQKLEWAFSLYDVDGNGTISKNEVLEIVTAIFKMISPEDTKHLPEDENTPEKRAEKIWGFFGKKDDDKLTEKEFIEGTLANKEILRLIQFEPQKVKEKLKEKKL
modifications: N-terminal myristoyl group (myristoylation rate more than 95%)
notes: recoverin with C39D, which mimics oxidation of cysteine-39 to a sulfenic/sulfinic/sulfonic group; also called thiol oxidation mimicking mutant; oxidized monomer mimic
B3: disulfide dimer of recoverin (dRec) (natural protein)
chain: GNSKSGALSKEILEELQLNTKFTEEELSSWYQSFLKECPSGRITRQEFQTIYSKFFPEADPKAYAQHVFRSFDANSDGTLDFKEYVIALHMTSAGKTNQKLEWAFSLYDVDGNGTISKNEVLEIVTAIFKMISPEDTKHLPEDENTPEKRAEKIWGFFGKKDDDKLTEKEFIEGTLANKEILRLIQFEPQKVKEKLKEKKL
modifications: N-terminal myristoyl group; disulfide between the cysteine-39 residues of the two chains

Key:
Details in all cases: both partners purified
[1] = target: B2; test: SPR; Cav or CavE immobilised by amine coupling (ProteOn GLH chip); analyte 2.5-30 uM recoverin form; 10 mM HEPES pH 7.4, 150 mM NaCl, 2 mM DTT (none for dRec), 0.05% TWEEN 20, with calcium (1 mM CaCl2 in the methods, 2 mM Ca2+ in Table 2); 25 C; heterogeneous ligand model
[2] = target: B3; test: SPR; Cav or CavE immobilised by amine coupling (ProteOn GLH chip); analyte 2.5-30 uM recoverin form; 10 mM HEPES pH 7.4, 150 mM NaCl, 2 mM DTT (none for dRec), 0.05% TWEEN 20, calcium-free (1 mM EDTA in the methods, 2 mM EGTA in Table 2); 25 C; heterogeneous ligand model
[3] = target: T1, recombinant myristoylated recoverin, …; test: as above
[4] = target: B2; test: as above
[5] = target: B1; test: pull-down; Cav or CavE covalently attached to BrCN-activated Sepharose CL-4B; 50 ug recoverin form; 20 mM Tris-HCl pH 7.5, 100 mM NaCl, 2 mM MgCl2, 2 mM EGTA (calcium-free); 30 min at room temperature; bound protein analysed by SDS-PAGE

Binder | Kd [1] [nM] | koff [1] [s⁻¹] | Kd [2] [nM] | koff [2] [s⁻¹] | Kd [3] [nM] | koff [3] [s⁻¹] | Kd [4] [nM] | koff [4] [s⁻¹] | fold increase of the interaction against Rec (pull-down) [5] [fold]
B1 | 376 ± 173 | 0.000186 | 48.6 ± 1.1 | 2.44e-05 | 490 ± 160 | 0.000105 | 140 ± 44 | 0.000117 | –
N-terminally tagged caveolin-1 fragment M1-R101 with Y14E substitution (CavE) (domain or fragment, UniProt Q03135 1-101, looked up, caveolin-1, residues M1-R101 with Y14E, which mimics phosphorylation at Y14; built on Cav; Forms larger oligomeric particles than Cav by DLS; also called caveolin-1 mutant Y14E; source: E. coli BL21 Star (DE3), solubilised in guanidine hydrochloride, dialysed, purified (Ni-NTA)) MSGGKYVDSEGHLETVPIREQGNIYKPNNKAMADELSEKQVYDAHTKEIDLVNRDPKHLNDDVVKIDFEDVIAEPEGTHSFDGIWKASFTTFTVTKYWFYR | 629 ± 257 | 0.000202 | 218 ± 87 | 8.08e-05 | 1110 ± 66 | 8.81e-05 | 329 ± 145 | 0.000172 | –
B2 | – | – | – | – | – | – | – | – | 2 to 3
B3 | – | – | – | – | – | – | – | – | 2 to 3
